From patent publication US4534894A, “Process for sulphation and phosphorylation of proteins and peptides” (The Rockefeller University, priority 1982, dated 1985) come the findings set out here.

The nature of series [1]: Aggregation tendency by turbidity of the solution (absorbance at 400 nm). The series is classed as physicochemical. The conditions noted are these: 0 to 0.1 A non-aggregated, above 0.3 aggregated. The protocol:
The tendency of modified insulin to aggregate was assessed by measuring the turbidity of the solution. This method is based on the work of Leach and Scheraga (S. J. Leach and H. A. Scheraga (1964) J. Amer. Chem. Soc. 82, 4790-4792) who stated that absorbancy observed in insulin solutions between 350 and 600 nm is due to light scattering of aggregated particles. […] After deaeration under vacuo for 60 min. 1 ml of this solution was diluted with 1 ml of PBS, and the turbidity was measured on a Hewlett Packard spectrophotometer type HP 8590, utilizing as a blank a non-aggregated sample diluted by 1 volume of 8M guanidine hydrochloride. Aggregation was measured by the difference in absorbance determined at 400 nm for the two samples. Non-aggregated samples gave absorbance values of 0 to 0.1 Absorbance Unit(A), Values above 0.3 were considered to be aggregated.

A short description of series [2]: Hypoglycemic potency (United States Pharmacopeia method). It is filed as in vivo. The settings on record: USP Vol. 18 hypoglycemic potency assay; relative to unmodified insulin. The protocol: Hypoglycemic potency of the modified insulin was measured as described in "The United States Pharmacopeia", Mark Publishing Co., Vol. 18, pp. 883-884 (1964). Bioactivity was 62% as compared to unmodified insulin.

As to “unmodified porcine sodium insulin: unmodified porcine sodium insulin, starting material and comparator [reference compound]”, in series [1] (dissolved in distilled water, treated by the same procedure), the “Turbidity (absorbance at 400 nm)” value stood at 0.51 A. Take “Example 1: porcine sodium insulin sulphated with sulfuric acid and N,N' dicyclohexyl carbodiimide in dimethylformamide”: in series [2], the “Bioactivity (hypoglycemic potency) as compared to unmodified insulin” value is on record as 62%. Moreover, the “Turbidity (difference in absorbance at 400 nm)” value in series [1] (dissolved in PBS, passed 50 times through syringe with 26G needle, blank in guanidine hydrochloride) was 0.08 A. On to “Example 4: porcine sodium insulin phosphorylated with concentrated phosphoric acid and DCC in DMF”, for which the “Bioactivity (hypoglycemic potency) as compared to unmodified insulin” value in series [2] stood at 85%.
